Article PMC12279200, “Tumor‐Associated Glycan Exploits Adenosine Receptor 2A Signaling to Facilitate Immune Evasion” (Advanced Science, 2025)

B1: adenosine receptor 2A (A2AR), endogenous (receptor, UniProt P29274 1-412, looked up)
chain: MPIMGSSVYITVELAIAVLAILGNVLVCWAVWLNSNLQNVTNYFVVSLAAADIAVGVLAIPFAITISTGFCAACHGCLFIACFVLVLTQSSIFSLLAIAIDRYIAIRIPLRYNGLVTGTRAKGIIAICWVLSFAIGLTPMLGWNNCGQPKEGKNHSQGCGEGQVACLFEDVVPMNYMVYFNFFACVLVPLLLMLGVYLRIFLAARRQLKQMESQPLPGERARSTLQKEVHAAKSLAIIVGLFALCWLPLHIINCFTFFCPDCSHAPLWLMYLAIVLSHTNSVVNPFIYAYRIREFRQTFRKIIRSHVLRQQEPFKAAGTSARVLAAHGSDGEQVSLRLNGHPPGVWANGSAPHPERRPNGYALGLVSGGSAQESQGNTGLPDVELLSHELKGVCPEPPGLDDPLAQDGAGVS
notes: adenosine receptor 2A (A2AR), endogenous in human primary CD4+ T cells and in Jurkat cells; also called A2a receptor; source: endogenous, human primary CD4+ T cell lysate; endogenous, Jurkat (Jurkat-vector and Jurkat-mutTRAX-FLAG) lysate
B2: translin‐associated factor‐X (TRAX), endogenous (natural protein, UniProt Q99598 1-290, looked up)
chain: MSNKEGSGGFRKRKHDNFPHNQRREGKDVNSSSPVMLAFKSFQQELDARHDKYERLVKLSRDITVESKRTIFLLHRITSAPDMEDILTESEIKLDGVRQKIFQVAQELSGEDMHQFHRAITTGLQEYVEAVSFQHFIKTRSLISMDEINKQLIFTTEDNGKENKTPSSDAQDKQFGTWRLRVTPVDYLLGVADLTGELMRMCINSVGNGDIDTPFEVSQFLRQVYDGFSFIGNTGPYEVSKKLYTLKQSLAKVENACYALKVRGSEIPKHMLADVFSVKTEMIDQEEGIS
notes: translin-associated factor X (TRAX), endogenous in human primary CD4+ T cells and in Jurkat cells; source: endogenous, human primary CD4+ T cell lysate; endogenous, Jurkat (Jurkat-vector) lysate
B4: FLAG‐tagged TRAX^(Q219A, Q223A) (natural protein, UniProt Q99598 1-290, looked up)
chain: MSNKEGSGGFRKRKHDNFPHNQRREGKDVNSSSPVMLAFKSFQQELDARHDKYERLVKLSRDITVESKRTIFLLHRITSAPDMEDILTESEIKLDGVRQKIFQVAQELSGEDMHQFHRAITTGLQEYVEAVSFQHFIKTRSLISMDEINKQLIFTTEDNGKENKTPSSDAQDKQFGTWRLRVTPVDYLLGVADLTGELMRMCINSVGNGDIDTPFEVSAFLRAVYDGFSFIGNTGPYEVSKKLYTLKQSLAKVENACYALKVRGSEIPKHMLADVFSVKTEMIDQEEGIS
notes: translin-associated factor X (TRAX) with Q219A and Q223A; also called mutTRAX‐FLAG; mutTRAX; source: Jurkat cells, lentivirus (Jurkat‐mutTRAX‐FLAG), in lysate

Legend:
[1] = target: B2; test: co-IP; Jurkat‐vector or Jurkat‐mutTRAX‐FLAG cells incubated with 30 µM GHCer or PBS at 37 °C for 1 h; immunoprecipitation with anti‐A2AR, anti‐TRAX or anti‐FLAG, western blot; details: partners not purified
[2] = target: B4; test: as above; details: partners not purified
[3] = target: B2; test: co-IP; human primary CD4+ T cells incubated with 30 µM GHCer or PBS at 37 °C for 1 h; immunoprecipitation with anti‐A2AR or anti‐TRAX, western blot with anti‐TRAX or anti‐A2AR; details: partners not purified
[4] = target: B1; test: co-IP; Jurkat‐vector or Jurkat‐mutTRAX‐FLAG cells incubated with 30 µM GHCer or PBS at 37 °C for 1 h; immunoprecipitation with anti‐A2AR, anti‐TRAX or anti‐FLAG, western blot; details: partners not purified
[5] = target: B1; test: co-IP; human primary CD4+ T cells incubated with 30 µM GHCer or PBS at 37 °C for 1 h; immunoprecipitation with anti‐A2AR or anti‐TRAX, western blot with anti‐TRAX or anti‐A2AR; details: partners not purified
[6] = target: T1, A2AR fragment E (aa 291–393) (UniProt P29274 291-393); test: Luminex bead-based assay; A2AR‐His full length or fragments captured on Luminex beads conjugated with anti‐His antibody; TRAX in solution, detected by antibody and PE-conjugated antibody; with PBS, 30 µM GHCer or 30 µM GH‐biotin; PBS with 1% BSA, 37 °C, 60 min; signals normalised to full‐length A2AR/PBS/TRAX; details: both partners purified
T1 construct: adenosine receptor 2A (A2AR), C-terminal fragment E, aa 291–393; source: Escherichia coli, His‐tagged recombinant protein

[7] = target: T2, A2AR fragment F (aa 291–412) (UniProt P29274 291-412); test: as above; details: both partners purified
T2 construct: adenosine receptor 2A (A2AR), C-terminal fragment F, aa 291–412; source: Escherichia coli, His‐tagged recombinant protein

[8] = target: T3, full‐length recombinant A2AR protein (A2AR‐His, fragment A) (UniProt P29274 1-412); test: as above; details: both partners purified
T3 construct: adenosine receptor 2A (A2AR), full-length (fragment A); the printed end of fragment F (aa 412) fits the human protein; captured on beads by an anti-His antibody; also called full‐length N‐His‐A2AR; A2AR‐full length; source: Escherichia coli, His‐tagged recombinant protein; not shown: His, N-terminal, kept

For B1, the “fold A2AR co-precipitated with GHCer over PBS control” value [1] was 2 fold, the “fold co-precipitated by anti‐FLAG with GHCer over PBS control” value [2] was 1.1 fold and the “fold A2AR co-precipitated with GHCer over PBS control” value [3] was 1.8 fold.

B2 was tested, and the “fold TRAX co-precipitated with GHCer over PBS control” value [4] was 2.3 fold and the “fold TRAX co-precipitated with GHCer over PBS control” value [5] was 2.1 fold.

B3: recombinant TRAX (His‐tagged) (natural protein, UniProt Q99598 1-290, looked up)
chain: MSNKEGSGGFRKRKHDNFPHNQRREGKDVNSSSPVMLAFKSFQQELDARHDKYERLVKLSRDITVESKRTIFLLHRITSAPDMEDILTESEIKLDGVRQKIFQVAQELSGEDMHQFHRAITTGLQEYVEAVSFQHFIKTRSLISMDEINKQLIFTTEDNGKENKTPSSDAQDKQFGTWRLRVTPVDYLLGVADLTGELMRMCINSVGNGDIDTPFEVSQFLRQVYDGFSFIGNTGPYEVSKKLYTLKQSLAKVENACYALKVRGSEIPKHMLADVFSVKTEMIDQEEGIS
notes: translin-associated factor X (TRAX); source: Escherichia coli, His‐tagged recombinant protein
With B3 the “fold binding signal with GHCer over fragment A without GHCer” value [6] was 2.3 fold, the “fold binding signal with GHCer over fragment A without GHCer” value [7] was 1.8 fold and the “fold binding signal with 30 µM GHCer over PBS control” value [8] was 1.6 fold. For the same binder, the “fold binding signal with GHCer over fragment A without GHCer” value [8] was 1.5 fold.

In the case of B4, the “fold co-precipitated by anti‐A2AR with GHCer over PBS control” value [4] is reported as 1 fold.
